Assay: yeast display, Sf9 membrane polyspecificity reagent, FACS + sequencing; frameworks hold sequencing errors
How it was run: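 Galactose-induced (36–48 hours) yeast carrying a synthetic nanobody display library were exposed to 10% biotinylated, detergent-solubilized Sf9 membrane reagent at 4 °C for 1 hour. FACS followed streptavidin microbead enrichment, using low and high (top ~1%) gates for expression (anti-HA) and reagent binding (streptavidin). Colony PCR, MiSeq 2 × 250 sequencing and CDR-length filtering followed. Labels for polyreactivity reflect the gate of origin.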

Question: For “QVQLVESGGGLVQAGGSLRLSCAASGLIFPYYTMGWYRQAPGKEGELVAVINRGGSTSYADSVKGRFTISRDNEKISVYLQMNSLKPEYTAVYYCARRTPYYTSYAFDSWGQGTQVTVSS”, which “polyreactivity (PSR sort gate)” value is on record?
Answer: high polyreactivity

Question: With “QVQLVESGGGLVQAGGSLRLSCDASGSTFFANAMGWYRQAPGKERELVAAITIGNTNYADSVKGRFTISRDNAKYTVYLQMNSLKPEDTAVYYCNASHVSHYRARDYWGQGTQVTVSS” as the sequence, how does the “polyreactivity (PSR sort gate)” value read?
Answer: low polyreactivity

Question: Which “polyreactivity (PSR sort gate)” value does the source give for “QVQLVESVGGIVQAGGSLRLSCAASGITLYWYAMGWYRQAPGKERELVAAISRRGGTTYYADSVKGRFTISRDNAKINVFLQMHSLNPEDTAVYYCAKAPDTQTSWSRQEGTYWGQGTQVTVSS” here?
Answer: low polyreactivity

Question: Which “polyreactivity (PSR sort gate)” value does the source give for “QVQLVESGGGLVQAGGSLRLRCAASGWYRQAAGKERELVAAITYSGGSTYYADSVKGRFTISRDNAKKTVYLQMNSLKPEDTAVYYCAAQPRVDYEFPYRYGYWGLGTQVTVSS” here?
Answer: low polyreactivity

Question: Which “polyreactivity (PSR sort gate)” value does the source give for “QVQLVESGGGLVQAGGSLRLSCAASGFTFAFYAMGWYRQAPGKERELVAAITGSGGSTYYADSVKGRFTISRDNAKNTVYLQMNSLKPEDTAVYYCAADLVVDYEWYDYWGQGTQVTVSS” here?
Answer: high polyreactivity

Question: Which “polyreactivity (PSR sort gate)” value does the source give for “QVQLEESGGGLVQAGGSLRLSCAASGRIFAVNAMGGYRQAPGKERELVAAINGGGSTNYADSVKGRFTLSRDNAKNTVYLQMNSLKPADTAVYYCAADVGWRSQTRGYYWGQGTQVTVSS” here?
Answer: high polyreactivity

Question: With “QVQLVESGGGLVQAGGSLRLSCAASGRTFYAYTMGWYRQAPGKERELVAAISSSGGSTYYADSVKGRFTISRDNAKNTVYLQMNSLKPEDTAVYYCAAVWYFNRRVSGYYYWGQGTQVTVSS” as the sequence, how does the “polyreactivity (PSR sort gate)” value read?
Answer: high polyreactivity

Question: Which “polyreactivity (PSR sort gate)” value does the source give for “QVQLVESGGGLVQAGGSLRLSCAASGSIFYWYAMGWYRQAPGKEREFVAAISRSDGSTYYADSLKRRFTISRDNAKNTVYLEMNRLKPEDTAVYYCAAERYYFPRSYRYGYWGQGTQVTVSS” here?
Answer: low polyreactivity

Question: Which “polyreactivity (PSR sort gate)” value does the source give for “QVQLVESGGGLVQAGGSLRVSCAASGFISGYYTMRWYRQAPGKEWELVAVINSGGSTYYADSVKGRFTISRDNAKNTVYLQMNSLKPEDTAVYYCAKLGGKYSRYYYWGQGTQVTVSS” here?
Answer: low polyreactivity

Question: For “QVQLVESGGGLVQAGCRLRLSCAASGRTFFPYAMGWYRQAPGKERELVAAITTGDITNYADSVKGRFTISRDNAKNTVYLQMNSLKPEDTAVYYCAARGYASWSYGGYPLKLDYWGQGTQVTVSS”, which “polyreactivity (PSR sort gate)” value is on record?
Answer: low polyreactivity

Question: Which “polyreactivity (PSR sort gate)” value does the source give for “QVQLVESGGGLVQAGGSLRLSCAASGSIFDYYVMGWYRQAPGKERELVAAISWSGASTYYADSVKGRFTISRDNAKNTVYLHMNSLKPEDTAVYYCAADYGVNTLIDYDYWGQGTQVTVSS” here?
Answer: low polyreactivity

Question: With “QDQLVESGGGLVQAGGSLRLSCAASGFTFTRYAMGWYRQAPGKERELVAAITQRGGSTYYADSVKGRFTISRDNAKNTVYLQMNSLKPEDTAVYYCAAVQTRRWYGYLYNYWGQGTQVTVSS” as the sequence, how does the “polyreactivity (PSR sort gate)” value read?
Answer: high polyreactivity

Question: With “QVQLVESGGGLVQAGGSLRLSCAASGFTFRINAMGWYRQAPGKERELVAVITGSGTSTYYADSVKGRFTISRDNAKNTVYLQMNSLKPEDTAVYYCAKRGFISQKYYYWGQGTQGTVSS” as the sequence, how does the “polyreactivity (PSR sort gate)” value read?
Answer: high polyreactivity

Question: With “QVQLVESGGGLVQAGGRLRLSCAASGRTMGWYRQAPGKERELVAAISSGGGSTYYADSVKGRFTISRDNAKNTVYLQMNSLKPEDTAVYYCARTTIAQLHSIVAPHDYWGQGTQVTVSS” as the sequence, how does the “polyreactivity (PSR sort gate)” value read?
Answer: low polyreactivity

Question: Which “polyreactivity (PSR sort gate)” value does the source give for “QDQLVESGGGLVPAAGSLRLSCASSGFSFRRNAMGCYRQAPGKEREFVAGITSGGSTYYADSVKGRFTISRDNAKNTVYLLLNSLKPEDTAVYFCAATYRRRYGYWGQGTQVTVSS” here?
Answer: high polyreactivity

Question: Which “polyreactivity (PSR sort gate)” value does the source give for “QVQLVESGGGLVQAGGSLRLSCAASGSTSGPYAMGWYRTAPGKERELVATISWIGDRTYYADSVKGRFTISRDNAKNTIYLQMNSLKPEDTAVYYCNDDYRGYANLEGDYWGQGTQVTVSS” here?
Answer: low polyreactivity

Question: For “QVQLVESGGCLVQAGGSLRLICAASVSIFYYYAMGWYRQAPGKERELVATIRSSDGSTYYADSVKGRFTISRDNAKNTVYLQMYSLKPEDTAVYYCAHGYFRYDYWGQGTQVSVSS”, which “polyreactivity (PSR sort gate)” value is on record?
Answer: low polyreactivity

Question: Which “polyreactivity (PSR sort gate)” value does the source give for “QVQLVESGGGLVQAGGSLRLSCAASGSTFGVNAMGWYRQAPGKERELVAAIRSAVPTYYADSVKGRFTISRDNAKNTVYLQMNSLKPEDTAVYYCAKRWSAKYGFYYWGQGTQVTVSS” here?
Answer: high polyreactivity

Question: Which “polyreactivity (PSR sort gate)” value does the source give for “QVQLVDSGGGLVQAGGSLRLSCAASGGIFGYGMGWYRQAPGKERELVAAITRSGGSTSYADSVKGRFTISRDNAKYTVYLQMNSVKPEDTAVYFCASRTRYSRYKSGYWGQGTQVTVSS” here?
Answer: high polyreactivity

Question: With “QVQLVESGGGLVQAGGSLRLSCAASGSIFDPYAMGWYRQAPGKERELVAAITASASSTYYADSVKGRFTISRDNAKNTVYLQMYSLKPEDTAVYYCAADRANWEYLLSLLGYDYWGQGTQVTVSS” as the sequence, how does the “polyreactivity (PSR sort gate)” value read?
Answer: low polyreactivity

Question: For “QVQPVESGGGLVQAGGSLRLSCAASGRTFWYYTMGWYRQAPGKERELVAAITSVGSTYYADSVKGRFTISRDNAKNTVYLQMNSLKPEDTAVYYCAKLYSYTHQSFDHWGQGTQVTVSS”, which “polyreactivity (PSR sort gate)” value is on record?
Answer: high polyreactivity

Question: With “QVQLVESGGGLVQAGGSLRLSCAASGFIFRYYAMGWYRQAPGKERELVAAINTGGTTYYADSVKGRFTISRDNAKNTVYLQMNSLKPEDTAVYYCATDGSPGYDWGQGTQVTVSS” as the sequence, how does the “polyreactivity (PSR sort gate)” value read?
Answer: high polyreactivity

Question: With “QVQLVESGGGLVQAGGSLRISCAASGSTFWYHAKGWSRQAPGKERELVATITNSGGSTYYADSVKGRFTISRDNAKNTVYLQKNSLKPEDTAVYYGATDVYSGALLKYDFWGQGTQVTVSS” as the sequence, how does the “polyreactivity (PSR sort gate)” value read?
Answer: low polyreactivity

Question: Which “polyreactivity (PSR sort gate)” value does the source give for “QVQLVESGGGLVQAGGSLRLSCAASGRIFYRYAMGWYRQAPGKERELVAGISNSGGSTYYADSVKGRFTISRDNAKNSVYLQRNSLKPEDTAVYYCARLSTKPLPYDYWGQGTQVTVSS” here?
Answer: high polyreactivity

Question: Which “polyreactivity (PSR sort gate)” value does the source give for “QVLLQETGGGLVQAGGSLRLSCAASGTISTDIRMGWYRLAPGKESEFVASIDCCSTTYYADSVKGRFTISRDNAKYTVYLQMNSLKPEDTAMYYCAAREATEFYLYYWGQGTQVTVSS” here?
Answer: low polyreactivity

Question: With “QVQLVESGGGLVQAGGSLRLSCAASGLIFRPYAIGWYRQAPGKERELVAGITSGGNTDYADSVKGRFTISRDNAKNTVYLQMNSLKPEDTAVYYCADYFIYGYWGQGTQVTVSS” as the sequence, how does the “polyreactivity (PSR sort gate)” value read?
Answer: low polyreactivity

Question: For “QVQLVESGGGLVQAGGSLRLSCAASGSTFAGNGMGWYRQAPGKERELVAGIDVTGGSTYYADSVKGRFTISRDNAKNTVYLQMNRLKPEDTAVYYCNARYVYHSSFAGFDYWGQGTQVTVSS”, which “polyreactivity (PSR sort gate)” value is on record?
Answer: low polyreactivity

Question: Which “polyreactivity (PSR sort gate)” value does the source give for “QVQLVESGGGLVQAGGSLRLSCAPSGFTFGYYAMGWYRQAPGKERELVAAITYSGGSTYYADSVKGRFTISRDNAKNTVYLQMNSLKPEDTAVYYCNAYDRRYYYGRWYGEFDYWGLGTQVTVSS” here?
Answer: low polyreactivity

Question: With “QVQLVESGGGLDQAGGTLRISCAASGSIFAPNAMSWNRQAPGKERELVAAITYSGTSTYADSVKGRFTISRDNAKNTVYLQMNSLKPEDTAVYYCAAEGSGVYYHSYDYWGQGTQVTVSS” as the sequence, how does the “polyreactivity (PSR sort gate)” value read?
Answer: low polyreactivity

Question: For “QVQLVESGGGLVQAGGSLRLSCAASGTTFTFNAMGWSRQAPGKERELVAAMSRSGGRTYYADSVKGRFTISRDNAKNTVYLQMNSLNPEDTAVYYCANDFVEQGRYNVGYWGQGTQVTGSS”, which “polyreactivity (PSR sort gate)” value is on record?
Answer: high polyreactivity

Question: Which “polyreactivity (PSR sort gate)” value does the source give for “QVQLVESGGGLVQAGGSLRLSCAASGSTSILYAMGWYRQAPGKERELVAAISRSGGSTYYADSVKGRFTISRDNAKNTVYLQMNSLKPEDTAVYYCAAQWVYQYGFNYWGQGTQVTVSS” here?
Answer: high polyreactivity

Question: For “QVQLVESGGGLVQAGGSLRLSCAASGFTFKGNAMGWYRQAPGKERELVATITQSAGSTYYADSVKGRFTISRDNAKNTVYLQMNSLKPEDTAVYYCNADPITLYYYSWYNYWGQGTQVTVSS”, which “polyreactivity (PSR sort gate)” value is on record?
Answer: low polyreactivity

Source: the nanobody polyreactivity screen of Harvey et al. (2022)
